The target of test [1] is human dimeric IL-23 (eBiosciences 34-8239) (human) (UniProt P29460).
In test [2] the target is human IL-6 (human) (UniProt P05231).
Test [3] has the same target. Nature of the test: cell-based or functional assay.
Test [4] addresses 3×FLAG-IL-6 (human). Nature of the test: SPR, 3×FLAG-IL-6 captured by anti-FLAG M2 on protein G, scFv-PEG as analyte; material refolded by dialysis from urea. Background: In SPR one partner is held on a chip, and binding of the other changes the refractive index at the surface.
For test [5], the target named is 3×FLAG-IL-6 (human). Kind of test: SPR, 3×FLAG-IL-6 captured by anti-FLAG M2 on protein G, scFv-PEG as analyte; material refolded by dialysis from urea; refolded by dialysis from urea.
3×FLAG-IL-6 (human), sequence (chain, as listed by the source limits assumed): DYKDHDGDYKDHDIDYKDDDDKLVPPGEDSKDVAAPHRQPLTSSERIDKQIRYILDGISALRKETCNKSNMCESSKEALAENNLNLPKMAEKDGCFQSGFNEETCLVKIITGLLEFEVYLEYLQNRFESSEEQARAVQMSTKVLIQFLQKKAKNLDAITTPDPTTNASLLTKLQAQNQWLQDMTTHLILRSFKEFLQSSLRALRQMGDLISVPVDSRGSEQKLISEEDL
Test [6] deals with 3×FLAG-IL-6 (human). Nature of the test: SPR, 3×FLAG-IL-6 captured by anti-FLAG M2 on protein G, scFv-PEG as analyte; material refolded by rapid dilution from SDS; refolded by rapid dilution from SDS.

Positions count from the first letter of the chain named.

human IL-6 (human), sequence (P05231 30-212 limits assumed): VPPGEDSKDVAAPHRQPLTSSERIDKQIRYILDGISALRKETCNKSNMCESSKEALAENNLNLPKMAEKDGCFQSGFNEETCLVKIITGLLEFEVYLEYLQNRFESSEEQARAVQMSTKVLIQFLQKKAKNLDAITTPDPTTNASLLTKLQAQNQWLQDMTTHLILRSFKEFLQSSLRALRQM
human dimeric IL-23 (eBiosciences 34-8239) (human), sequence (P29460 23-328 limits assumed, chain 1 of 2): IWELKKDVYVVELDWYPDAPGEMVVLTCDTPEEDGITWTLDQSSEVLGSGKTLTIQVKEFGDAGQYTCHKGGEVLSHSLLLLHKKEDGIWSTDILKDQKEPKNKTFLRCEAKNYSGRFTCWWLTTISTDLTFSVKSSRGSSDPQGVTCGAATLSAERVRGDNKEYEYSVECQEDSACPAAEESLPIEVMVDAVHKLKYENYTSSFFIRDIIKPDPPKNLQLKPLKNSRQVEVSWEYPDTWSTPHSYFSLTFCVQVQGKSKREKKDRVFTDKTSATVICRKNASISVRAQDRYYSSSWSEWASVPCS
human dimeric IL-23 (eBiosciences 34-8239) (human), sequence (Q9NPF7 20-189 limits assumed, chain 2 of 2, further chain): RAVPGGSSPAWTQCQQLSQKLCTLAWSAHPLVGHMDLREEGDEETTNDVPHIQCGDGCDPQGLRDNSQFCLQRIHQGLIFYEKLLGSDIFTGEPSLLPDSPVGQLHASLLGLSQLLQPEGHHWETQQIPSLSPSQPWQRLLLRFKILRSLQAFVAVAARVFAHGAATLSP

B1: 45G5 humanized scFv (mammalian expressed) (scFv)
scFv: DIQLTQSPSFLSASVGDRVTITCQSSQSIYNNNLLSWYQQKPGKAPKLLIYFASTLASGVPSRFSGSGSGTEFTLTISSLQPEDFATYYCLGGYDDDADTAFGGGTKVEIKGGGGSGGGGSGGGGSGGGGSEVQLVESGGGLVQPGGSLRLSCTVSGFSLSVYPINWVRQAPGKGLEWVGIINDVDDTAYSAWAKGRFTISRDNSKNTLYLQMNSLRAEDTAVYYCARGYLSYAYAGDAFDPWGQGTLVTVSSGPPPPHHHHHH
As for B1, the IC50 (read off the curve) (IL-17 from mouse splenocytes, OD450) in test [1] was determined as 0.4 ng/mL.

B2: 28D2 N-Aha (scFv)
scFv: MEDIQLTQSPSFLSASVGDRVTITCQASEDLFSSLAWYQQKPGKAPKLLIYSASTLASGVPSRFSGSGSGTDFTLTISSLQPEDFATYYCLGLYYYLTPDPIYGFGGGTKVEIKGGGGSGGGGSGGGGSGGGGSEVQLVESGGGLVQPGGSLRLSCTVSGLSLSKNAIAWVRQAPGKGLEWVGIIYAGGATTYASWAKGRFTISRDNSKNTLYLQLNSLRAEDTAVYYCAREYAGDSYYTGYTQLDLWGQGTLVTVSSGPPPPPHHHHHH
modifications: azidohomoalanine (Aha) in place of the single Met, at the N terminus
For B2, in the test with human IL-6 (human) [2], the IC50 (read off the curve) (B9 proliferation, OD570-600) turned out to be 0.03 ng/mL.

B3: 28D2-L Aha (scFv)
scFv: B2 scFv with E2A, G121M
modifications: azidohomoalanine (Aha) in place of a single Met in the Gly/Ser linker between VL and VH
Molecule B3 had an IC50 (read off the curve) (B9 proliferation, OD570-600) with human IL-6 (human) [2] of 0.03 ng/mL.

B4: 28D2c-PEG (scFv)
scFv: MAHHHHHHPPPPAAADIQLTQSPSFLSASVGDRVTITCQASEDLFSSLAWYQQKPGKAPKLLIYSASTLASGVPSRFSGSGSGTDFTLTISSLQPEDFATYYCLGLYYYLTPDPIYGFGGGTKVEIKGGGGSGGGGSGGGGSGGGGSEVQLVESGGGLVQPGGSLRLSCTVSGLSLSKNAIAWVRQAPGKGLEWVGIIYAGGATTYASWAKGRFTISRDNSKNTLYLQLNSLRAEDTAVYYCAREYAGDSYYTGYTQLDLWGQGTLVTVSSGM
modifications: C-terminal azidohomoalanine (Aha) conjugated to 30 kDa linear PEG alkyne
By Kd is commonly meant the free concentration of one partner at which half of the binding sites on the other are occupied at equilibrium, for simple one-to-one binding. A low value points to tighter binding. As a reminder, the koff is the first-order rate constant of dissociation. Read a low koff as slow dissociation. Broadly, the kon is a measure of how fast the partners come together. Consider B4, for which, in the test with human IL-6 (human) [3], the EC50, IL-6 neutralization; folded by dialysis from urea was determined as 0.116 ng/mL; the EC50 of the product; folded by rapid dilution from SDS was 0.256 ng/mL; the EC50 of the product; folded by rapid dilution from urea was determined as 0.138 ng/mL; the EC50 of the product; folded from guanidine is 0.15 ng/mL. In the test with 3×FLAG-IL-6 (human) [4], this molecule gave a Kd of 0.193 nM and a koff of 9.78e-05 s⁻¹. The molecule also gave a kon with 3×FLAG-IL-6 (human) [5] of 507000 M⁻¹ s⁻¹. Besides, in the test with 3×FLAG-IL-6 (human) [6], the Kd was 0.319 nM, the koff turned out to be 0.000104 s⁻¹ and the kon came to 326000 M⁻¹ s⁻¹.

B5: 28D2-C Aha (scFv)
scFv: B4 scFv
modifications: azidohomoalanine (Aha) in place of the single Met, at the C terminus
With B5, the IC50 (read off the curve) (B9 proliferation, OD570-600) in the test with human IL-6 (human) [2] was 0.03 ng/mL.

The record behind these values is patent US20160194391A1.
